Consider 2 molecules from patent US20250026856A1 (UCB, published 2025).

The target of test [1] is T1, human transglutaminase type 2 (TG2) (human, UniProt P21980 2-687).
T1 sequence: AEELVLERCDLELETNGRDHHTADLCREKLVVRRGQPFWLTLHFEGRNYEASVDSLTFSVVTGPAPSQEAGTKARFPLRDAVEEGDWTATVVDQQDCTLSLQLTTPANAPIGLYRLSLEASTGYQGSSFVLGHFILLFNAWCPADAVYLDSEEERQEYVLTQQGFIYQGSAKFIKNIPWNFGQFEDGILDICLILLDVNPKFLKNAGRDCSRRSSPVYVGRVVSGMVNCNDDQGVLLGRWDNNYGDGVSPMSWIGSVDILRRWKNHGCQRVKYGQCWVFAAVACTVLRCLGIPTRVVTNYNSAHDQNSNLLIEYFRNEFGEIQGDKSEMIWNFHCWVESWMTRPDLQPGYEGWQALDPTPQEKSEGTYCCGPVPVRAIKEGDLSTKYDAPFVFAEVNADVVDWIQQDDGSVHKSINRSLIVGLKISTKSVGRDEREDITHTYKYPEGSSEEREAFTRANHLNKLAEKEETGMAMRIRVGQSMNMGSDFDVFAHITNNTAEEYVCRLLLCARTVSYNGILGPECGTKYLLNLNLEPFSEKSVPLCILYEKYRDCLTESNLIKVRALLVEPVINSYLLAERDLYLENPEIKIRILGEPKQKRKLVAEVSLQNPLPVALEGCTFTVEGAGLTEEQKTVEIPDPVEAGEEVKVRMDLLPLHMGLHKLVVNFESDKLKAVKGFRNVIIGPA
In words: cell-based or functional assay.

For a further test, the target named is rabbit TG2 (rabbit). In words: cell-based or functional assay.

B1: rbBB7 (antibody, V domains shown)
VH: EVQLLESGGRLVTPGGSLTLTCAASGIIFSSSAMSWVRQAPGKGLEWVATISSGGRSTYYPDSVKGRFTVSRDSSKNTLYLQMNSLRAEDTAVYYCAKLISPYWGQGTLVTVSS
VL: AIKMTQTPSSVSAAVGGTVTISCKASQDINSYLTWFQQKPGQPPKTLIYLTNRLMDGVPSRFSGSGSGQEFLLTISGLECDDAATYYCLQYVDFPYTFGGGTKVVVK
For the molecule B1, in test [1], the “IC50 against human TG2” value came out at 0.3 nM. Also, the “IC50 against rabbit TG2” value with rabbit TG2 worked out at 8 nM.

B2: Zampilimab (antibody, V domains shown)
VH: EVQLLESGGGLVQPGGSLRLSCAASGFTLSTHAMSWVRQAPGKGLEWVATISSGGRSTYYPDSVKGRFTISRDNSKNTLYLQMNSLRAEDTAVYFCARLISTYWGQGTLVTVSS
VL: DITMTQSPSSLSASVGDRVTITCKASQDINSYLTWFQQKPGKAPKILIYLVNRLVDGVPSRFSGSGSGQDYALTISSLQPEDFATYYCLQYDDFPYTFGQGTKVEIK
For the molecule B2, the “IC50 against human TG2” value in test [1] is 0.25 nM. The “IC50 against rabbit TG2” value with rabbit TG2 is 103 nM.
